The source of these data is PMC5074518.

By stoichiometry N is commonly meant a count of units in the complex or per binding partner.

The target in assay [1] is purine nucleoside phosphorylase from Kluyveromyces lactis, 6xHis-tagged, as used in analytical gel filtration (Kluyveromyces lactis). In words: SEC; analytical size exclusion chromatography on a Superdex 200 Increase 10/300 GL column, calibrated with molecular weight marker proteins; single predominant peak at 12.5 mL. (In general: Size exclusion chromatography separates by hydrodynamic size, large species first.)

The target of assay [2] is purine nucleoside phosphorylase from Kluyveromyces lactis, C-terminal 6xHis-tag variant (Kluyveromyces lactis). In words: crystal structure; C-terminal 6xHis-tag variant, 8 mg/mL in 25 mM Tris-HCl, 100 mM NaCl, pH 8.0, mixed with 0.1 M sodium acetate trihydrate pH 4.6, 8% PEG4000; space group P6(1), 1.97 Å, three molecules in the asymmetric unit.

“purine nucleoside phosphorylase from Kluyveromyces lactis, 6xHis-tagged, as used in analytical gel filtration (enzyme)”: in assay [1], the stoichiometry N was 3.

The substance “purine nucleoside phosphorylase from Kluyveromyces lactis, C-terminal 6xHis-tag variant (enzyme)” gave a stoichiometry N in assay [2] of 3.
